Conditions: Homo sapiens; pH 7.4; Thermal; DSC; Sodium phosphate 10mM; NaCl 130 mM; transition: 2; reversible: yes; structure 1OWA

With “Spectrin alpha chain, erythrocytic 1, P02549 L49F” the Tm was 55.4 °C and the “change of melting temperature, mutant - wild type (higher = more stable)” value (“change of melting temperature, mutant” for short) was 0.8 °C.

With “Spectrin alpha chain, erythrocytic 1, P02549 R28S” the Tm was 53.3 °C and the “change of melting temperature, mutant” value was -1.3 °C.

In the case of “Spectrin alpha chain, erythrocytic 1, P02549 K48R”, the Tm is reported as 54.7 °C and the “change of melting temperature, mutant” value is reported as 0.1 °C.

For “Spectrin alpha chain, erythrocytic 1, P02549 R45S”, the Tm was 55.1 °C and the “change of melting temperature, mutant” value was 0.5 °C.

With “Spectrin alpha chain, erythrocytic 1, P02549 V31A” the Tm was 54.5 °C and the “change of melting temperature, mutant” value was -0.1 °C.

For “Spectrin alpha chain, erythrocytic 1, P02549 I24T”, the Tm was 54.4 °C and the “change of melting temperature, mutant” value was -0.2 °C.

For “Spectrin alpha chain, erythrocytic 1, P02549 R45T”, the Tm was 54.6 °C and the “change of melting temperature, mutant” value was 0 °C.

With “Spectrin alpha chain, erythrocytic 1, P02549 I24S” the Tm was 53.2 °C and the “change of melting temperature, mutant” value was -1.4 °C.

In the case of “Spectrin alpha chain, erythrocytic 1, P02549 R28L”, the Tm is reported as 53.1 °C and the “change of melting temperature, mutant” value is reported as -1.5 °C.

In the case of “Spectrin alpha chain, erythrocytic 1, P02549 G46V”, the Tm is reported as 52.8 °C and the “change of melting temperature, mutant” value is reported as -1.8 °C.

For “Spectrin alpha chain, erythrocytic 1, P02549 R34W”, the Tm was 49.1 °C and the “change of melting temperature, mutant” value was -5.5 °C.

For “Spectrin alpha chain, erythrocytic 1, P02549 R28H”, the Tm was 53.6 °C and the “change of melting temperature, mutant” value was -1 °C.

Source: FireProtDB (doi:10.1182/blood-2007-11-122457)
